Source: patent US20140072613A1 (published 2014)

Legend:
Experiment in all cases: cell-based or functional assay
[1] = molecular target: T1, Fms(Y969C)(h) (human, UniProt P07333 538-972, limits assumed)
T1 sequence (looked up): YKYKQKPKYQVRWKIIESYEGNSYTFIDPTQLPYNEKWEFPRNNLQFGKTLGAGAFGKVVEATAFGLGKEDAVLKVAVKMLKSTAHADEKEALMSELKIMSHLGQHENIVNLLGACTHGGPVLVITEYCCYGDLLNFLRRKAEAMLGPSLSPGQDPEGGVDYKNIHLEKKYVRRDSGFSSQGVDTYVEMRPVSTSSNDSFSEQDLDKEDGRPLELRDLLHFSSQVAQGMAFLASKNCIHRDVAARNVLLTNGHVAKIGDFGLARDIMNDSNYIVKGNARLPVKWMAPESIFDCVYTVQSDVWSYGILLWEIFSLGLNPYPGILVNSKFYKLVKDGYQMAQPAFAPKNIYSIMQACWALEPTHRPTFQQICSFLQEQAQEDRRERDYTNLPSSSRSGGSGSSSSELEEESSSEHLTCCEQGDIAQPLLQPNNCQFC

[2] = molecular target: MLK1(h) (human, UniProt P80192 132-413, limits assumed)
[3] = molecular target: T2, MST1(h) (human, UniProt Q13043 1-487)
T2 sequence (looked up): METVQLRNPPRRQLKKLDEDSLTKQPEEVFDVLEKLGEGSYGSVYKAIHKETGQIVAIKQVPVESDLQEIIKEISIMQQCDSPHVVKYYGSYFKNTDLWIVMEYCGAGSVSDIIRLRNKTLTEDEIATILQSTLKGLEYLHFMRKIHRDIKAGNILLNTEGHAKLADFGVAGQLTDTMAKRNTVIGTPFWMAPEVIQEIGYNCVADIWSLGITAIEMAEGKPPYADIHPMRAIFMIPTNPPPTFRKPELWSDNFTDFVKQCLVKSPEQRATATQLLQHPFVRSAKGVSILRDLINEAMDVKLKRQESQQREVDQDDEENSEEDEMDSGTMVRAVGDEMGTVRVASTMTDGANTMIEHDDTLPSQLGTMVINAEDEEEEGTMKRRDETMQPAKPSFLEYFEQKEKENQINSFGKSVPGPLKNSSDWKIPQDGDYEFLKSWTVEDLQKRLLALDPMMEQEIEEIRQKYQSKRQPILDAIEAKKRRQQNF

[4] = molecular target: T3, NEK2(h) (human, UniProt P51955 1-445)
T3 sequence (looked up): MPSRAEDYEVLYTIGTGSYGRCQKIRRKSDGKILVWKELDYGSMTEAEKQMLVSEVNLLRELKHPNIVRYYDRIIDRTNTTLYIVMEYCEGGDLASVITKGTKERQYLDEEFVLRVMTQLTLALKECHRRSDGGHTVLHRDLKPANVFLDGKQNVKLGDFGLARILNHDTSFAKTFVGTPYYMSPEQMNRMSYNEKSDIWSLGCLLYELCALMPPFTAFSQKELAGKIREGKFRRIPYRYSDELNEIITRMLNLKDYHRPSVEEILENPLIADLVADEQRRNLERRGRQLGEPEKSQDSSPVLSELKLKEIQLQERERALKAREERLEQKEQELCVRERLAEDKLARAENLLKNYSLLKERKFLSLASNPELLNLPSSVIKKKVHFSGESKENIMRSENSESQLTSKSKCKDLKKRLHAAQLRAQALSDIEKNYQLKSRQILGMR

[5] = molecular target: Pim-2(h) (human, UniProt Q9P1W9 1-311)
[6] = molecular target: T4, TSSK1(h) (human, UniProt Q9BXA7 1-367)
T4 sequence (looked up): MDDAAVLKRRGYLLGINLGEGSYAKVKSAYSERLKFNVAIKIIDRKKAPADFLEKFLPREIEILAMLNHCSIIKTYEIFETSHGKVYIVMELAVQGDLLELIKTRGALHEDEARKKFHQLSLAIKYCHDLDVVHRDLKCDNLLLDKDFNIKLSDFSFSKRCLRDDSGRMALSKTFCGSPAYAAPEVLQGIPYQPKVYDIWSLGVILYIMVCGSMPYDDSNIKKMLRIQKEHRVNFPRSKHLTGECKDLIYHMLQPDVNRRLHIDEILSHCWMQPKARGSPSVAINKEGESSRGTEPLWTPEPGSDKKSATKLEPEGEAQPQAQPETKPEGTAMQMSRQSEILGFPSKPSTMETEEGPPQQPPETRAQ

[7] = molecular target: T5, ZAP-70(h) (human, UniProt P43403 1-619)
T5 sequence (looked up): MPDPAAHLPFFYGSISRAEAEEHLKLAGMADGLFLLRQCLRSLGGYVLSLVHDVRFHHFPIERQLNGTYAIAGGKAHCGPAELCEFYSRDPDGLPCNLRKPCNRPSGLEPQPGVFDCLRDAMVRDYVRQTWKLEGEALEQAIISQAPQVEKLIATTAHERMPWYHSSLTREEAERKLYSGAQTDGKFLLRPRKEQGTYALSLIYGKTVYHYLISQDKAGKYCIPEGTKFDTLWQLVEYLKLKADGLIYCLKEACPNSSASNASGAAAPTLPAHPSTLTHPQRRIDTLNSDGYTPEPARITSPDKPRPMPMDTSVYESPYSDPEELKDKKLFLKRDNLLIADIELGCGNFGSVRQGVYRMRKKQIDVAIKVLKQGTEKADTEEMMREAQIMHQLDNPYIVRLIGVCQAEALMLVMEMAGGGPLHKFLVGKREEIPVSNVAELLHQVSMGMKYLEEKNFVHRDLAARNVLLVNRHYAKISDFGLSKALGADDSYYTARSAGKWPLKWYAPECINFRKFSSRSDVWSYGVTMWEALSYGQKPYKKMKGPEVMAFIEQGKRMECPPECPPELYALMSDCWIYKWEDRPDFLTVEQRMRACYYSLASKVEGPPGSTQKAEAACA

[8] = molecular target: CK1γ3(h) (human, UniProt Q9Y6M4 1-447)
Sequence of CK1γ3(h) (Q9Y6M4 whole entry): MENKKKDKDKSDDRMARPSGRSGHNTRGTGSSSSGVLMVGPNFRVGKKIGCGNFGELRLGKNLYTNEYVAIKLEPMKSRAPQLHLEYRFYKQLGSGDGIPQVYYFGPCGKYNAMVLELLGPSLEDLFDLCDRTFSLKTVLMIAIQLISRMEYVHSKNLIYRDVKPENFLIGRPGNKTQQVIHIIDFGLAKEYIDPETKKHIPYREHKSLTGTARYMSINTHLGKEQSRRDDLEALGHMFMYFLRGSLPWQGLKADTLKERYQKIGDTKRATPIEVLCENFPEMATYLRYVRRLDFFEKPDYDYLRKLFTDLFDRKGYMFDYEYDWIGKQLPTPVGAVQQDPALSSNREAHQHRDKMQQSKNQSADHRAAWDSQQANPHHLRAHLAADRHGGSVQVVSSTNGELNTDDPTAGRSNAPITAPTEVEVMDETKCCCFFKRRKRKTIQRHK

Sequence of Pim-2(h) (Q9P1W9 whole entry): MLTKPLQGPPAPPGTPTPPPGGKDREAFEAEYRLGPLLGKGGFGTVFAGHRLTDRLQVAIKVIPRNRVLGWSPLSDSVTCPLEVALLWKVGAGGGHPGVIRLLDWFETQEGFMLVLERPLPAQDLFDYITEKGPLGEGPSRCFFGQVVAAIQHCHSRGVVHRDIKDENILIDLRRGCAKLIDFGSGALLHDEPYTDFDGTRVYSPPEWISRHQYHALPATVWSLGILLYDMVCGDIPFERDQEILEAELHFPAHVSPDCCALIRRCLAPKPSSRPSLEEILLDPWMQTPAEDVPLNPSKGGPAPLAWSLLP
Sequence of MLK1(h) (P80192 132-413 limits assumed): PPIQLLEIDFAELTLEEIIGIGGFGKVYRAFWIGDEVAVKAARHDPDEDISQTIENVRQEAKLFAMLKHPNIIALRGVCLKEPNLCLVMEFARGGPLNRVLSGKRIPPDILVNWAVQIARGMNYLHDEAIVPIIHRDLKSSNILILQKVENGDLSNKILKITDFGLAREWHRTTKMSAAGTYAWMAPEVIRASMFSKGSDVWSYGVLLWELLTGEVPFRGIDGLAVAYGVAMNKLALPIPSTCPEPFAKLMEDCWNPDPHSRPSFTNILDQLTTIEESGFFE

Row | Binder | % activity, 100 µM [1] | % activity, 100 µM [2] | % activity, 100 µM [3] | % activity, 100 µM [4] | % activity, 100 µM [5] | % activity, 100 µM [6] | % activity, 100 µM [7] | % activity, 100 µM [8]
1 | FAKLAARLYRKALARQLGVAA [MMI-0300] | 72% | 40% | 14% | 78% | 76% | 79% | 75% | 125%
2 | KAFAKLAARLYRKALARQLGVAA [MMI-0400] | 91% | 33% | 6% | 61% | 92% | 79% | 33% | 115%
